Data as given in publication PMC6179282.

Experiments:
[1] = molecular target: Camelus dromedarius mu-class glutathione S-transferase (CdGSTM1) (Camelus dromedarius); assay: cross-linking; 0.25% glutaraldehyde, room temperature, 15 min, CdGSTM1 0.5 mg/mL at pH 7.0, before and after SEC; SDS-PAGE
[2] = molecular target: Camelus dromedarius mu-class glutathione S-transferase (CdGSTM1) (Camelus dromedarius); assay: SEC; analytical Superdex 200 Increase 10/300 GL, calibrated; CdGSTM1 2.5 mg/mL (also 0.25 mg loaded) in 50 mM phosphate buffer, 150 mM NaCl, pH 7.0
[3] = molecular target: Camelus dromedarius mu-class glutathione S-transferase (CdGSTM1) (Camelus dromedarius); assay: cross-linking; 0.25% glutaraldehyde, room temperature, 15 min, CdGSTM1 0.5 mg/mL at pH 4.0, before and after SEC; SDS-PAGE
[4] = molecular target: Camelus dromedarius mu-class glutathione S-transferase (CdGSTM1) (Camelus dromedarius); assay: SEC; Superdex 200 Increase, 0.25 mg CdGSTM1 equilibrated at pH 4.0, buffer with 150 mM NaCl at pH 4.0

Measured: stoichiometry N

Camelus dromedarius mu-class glutathione S-transferase (CdGSTM1) (enzyme)
2: [1] | [2] | [3] | [4]
